Source: patent publication US20230087785A1, “Leucine-Rich Repeat Kinase 2 Allosteric Modulators” (VIB VZW, priority 2020, published 2023)
Values belong to the molecule of their own block, whether it stands above or below them.

Target: T1, LRRK2(G2019S) (Homo sapiens, UniProt Q5S007, G2019S/M2397T/R50H)
T1 construct: SF tag (FLAG + Twin-Strep); expressed in transfected cells; host or cells: HEK 293T
Assay: In cellulo phospho-Rab / LRRK2 autophosphorylation assay in HEK293T cells
Assay type: cell-based
Parameters: key to Functional Group (see FIG. 2d): Group 1: group 1: Nbs that inhibit both LRRK2 autophosphorylation and Rab10 phosphorylation in cells; Group 2: group 2: Nbs that inhibit only Rab10 phosphorylation; Group 3: group 3: Nbs that activate LRRK2 kinase activity; Group 4: group 4: Nbs that have no consistent/clear effect on LRRK2 kinase activity
Details: for influence on LRRK2 kinase activity compared to the controls / Rab10 phosphorylation at position T72 / LRRK2 autophosphorylation at position S1292: HEK 293T cells co-expressing LRRK2(G2019S), Rab29 and Nb-GFP; for influence on LRRK2 kinase activity compared to the controls: Western blot; for Functional Group (see FIG. 2d): classification by effect on in cellulo LRRK2(G2019S) kinase activity; for Rab10 phosphorylation at position T72: endogenous Rab10
Method in brief: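 Cells co-transfected (PEI) with SF-tagged LRRK2(G2019S), FLAG-HA Rab29 and Nb-GFP fusions, lysed after 48 hrs. Western blot read LRRK2 pS1292 and endogenous Rab10 pT72 with site-specific antibodies, referenced to total LRRK2 and Rab10; ECL chemiluminescence on film.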

T1 sequence (Q5S007 whole entry R50H/G2019S/M2397T): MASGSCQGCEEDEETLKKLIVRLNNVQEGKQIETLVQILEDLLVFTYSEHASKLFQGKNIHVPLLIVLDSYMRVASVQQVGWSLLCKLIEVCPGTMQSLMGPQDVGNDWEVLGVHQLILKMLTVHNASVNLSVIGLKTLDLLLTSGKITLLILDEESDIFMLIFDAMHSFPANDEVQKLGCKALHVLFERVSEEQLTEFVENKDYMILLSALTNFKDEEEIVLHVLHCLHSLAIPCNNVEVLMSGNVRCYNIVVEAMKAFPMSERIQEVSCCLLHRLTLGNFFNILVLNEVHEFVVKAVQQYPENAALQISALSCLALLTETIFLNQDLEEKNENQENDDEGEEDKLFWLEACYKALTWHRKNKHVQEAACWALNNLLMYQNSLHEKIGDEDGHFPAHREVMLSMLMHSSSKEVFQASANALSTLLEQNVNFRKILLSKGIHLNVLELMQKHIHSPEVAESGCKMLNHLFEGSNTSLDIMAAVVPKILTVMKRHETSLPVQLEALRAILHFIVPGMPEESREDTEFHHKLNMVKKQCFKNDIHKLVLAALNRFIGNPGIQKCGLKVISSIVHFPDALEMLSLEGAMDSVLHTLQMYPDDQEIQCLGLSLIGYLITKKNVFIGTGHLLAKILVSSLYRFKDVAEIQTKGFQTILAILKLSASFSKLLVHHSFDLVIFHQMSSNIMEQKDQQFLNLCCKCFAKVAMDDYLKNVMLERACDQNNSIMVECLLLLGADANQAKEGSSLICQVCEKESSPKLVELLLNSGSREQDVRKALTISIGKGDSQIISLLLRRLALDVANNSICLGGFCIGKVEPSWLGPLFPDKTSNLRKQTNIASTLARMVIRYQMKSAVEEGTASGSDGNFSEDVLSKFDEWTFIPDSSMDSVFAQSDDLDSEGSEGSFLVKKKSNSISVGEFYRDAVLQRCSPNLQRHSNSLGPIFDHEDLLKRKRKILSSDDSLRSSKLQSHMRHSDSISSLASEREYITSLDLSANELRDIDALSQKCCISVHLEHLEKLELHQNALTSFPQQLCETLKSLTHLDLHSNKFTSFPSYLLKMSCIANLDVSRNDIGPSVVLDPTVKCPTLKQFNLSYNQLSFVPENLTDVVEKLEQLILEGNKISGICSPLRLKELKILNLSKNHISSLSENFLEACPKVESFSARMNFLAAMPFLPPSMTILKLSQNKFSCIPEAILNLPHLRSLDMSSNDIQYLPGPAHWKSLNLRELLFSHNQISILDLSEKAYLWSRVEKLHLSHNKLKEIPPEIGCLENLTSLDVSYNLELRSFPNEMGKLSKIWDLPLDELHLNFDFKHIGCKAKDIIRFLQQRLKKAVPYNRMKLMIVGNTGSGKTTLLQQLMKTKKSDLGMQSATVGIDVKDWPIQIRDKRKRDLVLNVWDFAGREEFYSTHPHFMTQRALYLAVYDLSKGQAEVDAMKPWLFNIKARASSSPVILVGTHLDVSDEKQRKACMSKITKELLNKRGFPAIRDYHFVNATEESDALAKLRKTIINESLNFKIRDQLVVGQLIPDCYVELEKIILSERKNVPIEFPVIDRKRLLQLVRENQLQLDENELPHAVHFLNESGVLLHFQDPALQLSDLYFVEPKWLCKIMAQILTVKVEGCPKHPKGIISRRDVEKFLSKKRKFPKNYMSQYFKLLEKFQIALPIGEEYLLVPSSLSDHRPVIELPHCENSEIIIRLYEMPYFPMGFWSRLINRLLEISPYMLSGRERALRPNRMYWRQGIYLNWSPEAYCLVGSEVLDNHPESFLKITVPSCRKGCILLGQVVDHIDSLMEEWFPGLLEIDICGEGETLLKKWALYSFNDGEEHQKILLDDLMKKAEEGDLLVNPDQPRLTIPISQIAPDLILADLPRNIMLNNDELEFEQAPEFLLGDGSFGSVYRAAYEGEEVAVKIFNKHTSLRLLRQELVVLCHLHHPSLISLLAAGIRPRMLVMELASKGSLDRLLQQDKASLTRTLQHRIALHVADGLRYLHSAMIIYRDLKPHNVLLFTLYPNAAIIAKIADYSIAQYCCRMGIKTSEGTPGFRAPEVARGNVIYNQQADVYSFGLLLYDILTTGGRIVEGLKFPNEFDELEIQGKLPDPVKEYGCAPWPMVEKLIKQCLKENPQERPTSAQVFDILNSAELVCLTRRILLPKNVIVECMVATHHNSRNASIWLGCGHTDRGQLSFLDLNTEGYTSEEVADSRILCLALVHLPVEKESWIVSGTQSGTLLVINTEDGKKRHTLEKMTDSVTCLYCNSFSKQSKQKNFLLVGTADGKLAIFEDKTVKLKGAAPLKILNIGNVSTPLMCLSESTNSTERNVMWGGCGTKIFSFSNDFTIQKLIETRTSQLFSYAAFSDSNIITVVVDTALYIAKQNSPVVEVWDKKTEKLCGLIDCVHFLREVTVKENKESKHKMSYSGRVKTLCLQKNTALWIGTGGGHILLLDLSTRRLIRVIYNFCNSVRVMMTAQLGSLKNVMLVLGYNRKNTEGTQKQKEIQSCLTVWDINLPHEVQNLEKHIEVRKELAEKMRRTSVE

B1: Nb22: LRRK2-specific Nanobody, SEQ ID NO: 9 (protein)
VHH: MAQVQLVESGGGLVQAGGSLRLSCAASGRTFSSYTMGWFRQAPGKEREFVAAIRWSGGSTYYADSVKGRFTISRDNAKNTVYLQMNSLKPEDTAVYYCAASDRGGFIATSGGWMDYWGKGTQVTVSS
modifications: Nanobody CA13611
influence on LRRK2 kinase activity compared to the controls: significant increase of LRRK2 kinase activity
Functional Group (see FIG. 2d): Group 3
Rab10 phosphorylation at position T72: activating Rab10 phosphorylation in cells

B2: Nb1: LRRK2-specific Nanobody, SEQ ID NO: 1 (protein)
VHH: MAQVQLVESGGGLVQAGGSLRLSCVASGRIFSGNAMGWYRQAPGRQRELVAGITNGGYTNYRQFVKGRFTISRDNAKRTVYLQMNSLKPEDTAVYYCNALDREARQVDYWGQGTQVTVSS
modifications: Nanobody CA12610
LRRK2 autophosphorylation at position S1292: inhibit both Rab10 phosphorylation and LRRK2 autophosphorylation at S1292
influence on LRRK2 kinase activity compared to the controls: strongly decreased LRRK2 autophosphorylation and/or Rab10 phosphorylation
Functional Group (see FIG. 2d): Group 1
Rab10 phosphorylation at position T72: inhibit both Rab10 phosphorylation and LRRK2 autophosphorylation at S1292

B5: Nb6: LRRK2-specific Nanobody, SEQ ID NO: 2 (protein)
VHH: MAQVQLVESGGGLVQAGGSLRLSCAASGSIFSPTAMGWYRQAPGKERELVAGITSGGYTNYRNFARGRFTISRDNAKKTVYLQMNSLNPEDTAVYYCNTLTISWSWGQGTQVTVSS
modifications: Nanobody CA12618
LRRK2 autophosphorylation at position S1292: inhibit both Rab10 phosphorylation and LRRK2 autophosphorylation at S1292
influence on LRRK2 kinase activity compared to the controls: strongly decreased LRRK2 autophosphorylation and/or Rab10 phosphorylation
Functional Group (see FIG. 2d): Group 1
Rab10 phosphorylation at position T72: inhibit both Rab10 phosphorylation and LRRK2 autophosphorylation at S1292

Now from value to molecule, other results behind:

Functional Group (see FIG. 2d): Group 1
B3: Nb42: LRRK2-specific Nanobody, SEQ ID NO: 6 (protein)
VHH: MAQVQLVESGGGLVQAGGSLRLSCAASGDVNYAVGWFRQAPRKEREFVAAINWRGDNTDYTDSVKGRFTISRDNAKNTVYLQMNSLKPEDTAVYYCAAKSAPYWYSDIAPDYWGQGTQVTVSS
modifications: Nanobody CA14259
LRRK2 autophosphorylation at position S1292: inhibit both Rab10 phosphorylation and LRRK2 autophosphorylation at S1292
influence on LRRK2 kinase activity compared to the controls: strongly decreased LRRK2 autophosphorylation and/or Rab10 phosphorylation
Rab10 phosphorylation at position T72: inhibit both Rab10 phosphorylation and LRRK2 autophosphorylation at S1292

Functional Group (see FIG. 2d): Group 1
B4: Nb23: LRRK2-specific Nanobody, SEQ ID NO: 3 (protein)
VHH: MAQVQLVESGGGLVQAGGSLRLSCAASGRTFSRYTMGWFRQAPGKDREFVARITTSGAVTTYADSAKGRFTISRDNAKNTVYLQMNTLKPEDTAVYYCAAGQGQLSSQSRFVDYWGQGTQVTVSS
modifications: Nanobody CA13612
LRRK2 autophosphorylation at position S1292: inhibit both Rab10 phosphorylation and LRRK2 autophosphorylation at S1292
influence on LRRK2 kinase activity compared to the controls: strongly decreased LRRK2 autophosphorylation and/or Rab10 phosphorylation
Rab10 phosphorylation at position T72: inhibit both Rab10 phosphorylation and LRRK2 autophosphorylation at S1292
